From publication PMC9569552 (International Journal of Molecular Sciences, 2022)

Biological target: T1, antigen c-MET (Homo sapiens (assumed), UniProt P08581)
T1 construct: c-MET used as antigen in the ForteBio Octet experiment; the construct of the antigen is unknown; also called mesenchymal-epithelial transition protein
Experiment: BLI; ForteBio Octet; who was immobilised and the conditions not given; KD from ForteBio Data Analysis Software 8.0; values compared 'if normalized to the same number of epitope of c-MET'

T1 sequence (P08581 25-1390): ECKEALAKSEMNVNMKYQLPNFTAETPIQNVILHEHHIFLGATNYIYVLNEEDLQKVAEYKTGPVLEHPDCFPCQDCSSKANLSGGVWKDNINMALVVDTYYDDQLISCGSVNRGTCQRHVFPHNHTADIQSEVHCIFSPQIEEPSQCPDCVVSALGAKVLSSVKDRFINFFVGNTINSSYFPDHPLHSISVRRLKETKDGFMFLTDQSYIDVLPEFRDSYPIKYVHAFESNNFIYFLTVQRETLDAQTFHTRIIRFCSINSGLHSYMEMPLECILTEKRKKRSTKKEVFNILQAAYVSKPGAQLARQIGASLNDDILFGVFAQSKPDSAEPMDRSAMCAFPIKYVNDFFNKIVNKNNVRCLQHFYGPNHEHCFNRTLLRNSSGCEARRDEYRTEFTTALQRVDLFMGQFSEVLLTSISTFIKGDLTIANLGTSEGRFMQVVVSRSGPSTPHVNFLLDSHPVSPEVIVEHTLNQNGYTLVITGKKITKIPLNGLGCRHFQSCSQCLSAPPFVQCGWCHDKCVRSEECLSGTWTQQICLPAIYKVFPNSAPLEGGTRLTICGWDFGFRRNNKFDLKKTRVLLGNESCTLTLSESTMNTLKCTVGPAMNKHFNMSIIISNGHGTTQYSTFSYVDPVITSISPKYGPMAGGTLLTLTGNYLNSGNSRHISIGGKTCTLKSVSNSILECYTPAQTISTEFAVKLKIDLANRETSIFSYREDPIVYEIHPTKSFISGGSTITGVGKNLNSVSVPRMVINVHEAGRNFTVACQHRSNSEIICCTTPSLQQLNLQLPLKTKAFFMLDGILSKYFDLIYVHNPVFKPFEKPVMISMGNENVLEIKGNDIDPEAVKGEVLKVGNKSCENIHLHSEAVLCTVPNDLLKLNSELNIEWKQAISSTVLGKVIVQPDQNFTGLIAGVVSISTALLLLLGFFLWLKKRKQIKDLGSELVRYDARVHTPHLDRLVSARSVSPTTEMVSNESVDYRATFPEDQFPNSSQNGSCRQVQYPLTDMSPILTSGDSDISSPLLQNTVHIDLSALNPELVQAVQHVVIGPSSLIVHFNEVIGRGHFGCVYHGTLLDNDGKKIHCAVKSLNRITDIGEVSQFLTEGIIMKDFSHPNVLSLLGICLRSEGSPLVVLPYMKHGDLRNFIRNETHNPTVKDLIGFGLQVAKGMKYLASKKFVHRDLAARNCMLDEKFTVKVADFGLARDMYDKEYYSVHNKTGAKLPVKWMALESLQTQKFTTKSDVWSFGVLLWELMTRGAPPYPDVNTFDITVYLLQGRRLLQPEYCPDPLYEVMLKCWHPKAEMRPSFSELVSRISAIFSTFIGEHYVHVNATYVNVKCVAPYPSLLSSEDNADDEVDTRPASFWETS

Kd: 650 pM
B1: Emibetuzumab-IgG4 (Emi-IgG4) antibody (antibody, V domains shown)
VH: QVQLVQSGAEVKKPGASVKVSCKASGYTFTDYYMHWVRQAPGQGLEWMGRVNPNRRGTTYNQKFEGRVTMTTDTSTSTAYMELRSLRSDDTAVYYCARANWLDYWGQGTTVTVSS
VL: DIQMTQSPSSLSASVGDRVTITCSVSSSVSSIYLHWYQQKPGKAPKLLIYSTSNLASGVPSRFSGSGSGTDFTLTISSLQPEDFATYYCQVYSGYPLTFGGGTKVEIK
notes: heavy chain of emibetuzumab, IgG4; disclosed in WO 2010/059654; kappa light chain of emibetuzumab; IgG4; also called emibetuzumab analog; source: 293F cells, transiently co-transfected, purified from the supernatant (Protein A); copies: 2 + 2
